B1: E-box DNA probe (dsDNA)
DNA 1: CCGGCTGACACGTGGTATTAAT
DNA 2: ATTAATACCACGTGTCAGCCGG

Experiments:
[1] = test system: MaxS2pS11pK31AcK57Ac S2pS;S11pS;K31Ac;K57Ac;M1Nle;M65Nle;M148Nle, P61244-2; assay: BLI; details: EMSA: 10 mM MES pH 6.0, 150 mM KCl, 1 mM MgCl2, 10% glycerol, room temperature 30 min, 8% TBE gel; CD: same buffer; BLI: 1x PBS, 0.1% BSA, 0.02% Tween-20, 65 nM
Max-WT = Max-WT (UniProt P61244-2, M1Nle;M65Nle;M148Nle); assay: EMSA; 1 uM DNA, 0-8 uM protein, 1 mM MgCl2; EMSA: 10 mM MES pH 6.0, 150 mM KCl, 1 mM MgCl2, 10% glycerol, room temperature 30 min, 8% TBE gel; CD: same buffer; BLI: 1x PBS, 0.1% BSA, 0.02% Tween-20, 65 nM biotinylated DNA loaded (temperature not in material); details: tags: C-terminal extra K; chain copies: 2
Max-WT, sequence (P61244 other isoform, or with tags, fused parts or gaps M1Nle;M65Nle;M148Nle): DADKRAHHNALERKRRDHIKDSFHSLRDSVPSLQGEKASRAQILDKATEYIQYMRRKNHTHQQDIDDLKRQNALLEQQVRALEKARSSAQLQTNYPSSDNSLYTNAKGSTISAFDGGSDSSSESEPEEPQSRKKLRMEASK

MaxS2pS11pK31AcK57Ac S2pS;S11pS;K31Ac;K57Ac;M1Nle;M65Nle;M148Nle, P61244-2, sequence (P61244 whole entry, looked up): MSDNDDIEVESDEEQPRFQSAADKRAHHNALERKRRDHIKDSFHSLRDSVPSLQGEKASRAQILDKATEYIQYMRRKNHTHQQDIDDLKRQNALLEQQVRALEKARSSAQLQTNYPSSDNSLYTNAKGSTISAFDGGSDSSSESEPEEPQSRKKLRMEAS

Molecule	Kd [1] [nM]	binding result (Max-WT)
CCGGCTGACACGTGGTATTAAT (double strand) [biotinylated E-box DNA probe]	1100	
B1		binds

From PMC11998062, “One-Pot Total Synthesis of a Post-translationally Modified Max Transcription Factor Sheds Light on Ser-Phosphorylation and Lys-Acetylation Crosstalk in DNA Binding”
